Results taken from article PMC9645730, “Cryo-EM structure of the human sodium-chloride cotransporter NCC” (Science Advances, 2022).

Molecular target: the molecule itself
Assay: cryo-EM structure; single-particle analysis of purified NCC at 9 mg/ml in 25 mM tris (pH 8.0), 150 mM NaCl, 0.02% GDN; TMD map with C2 symmetry, overall map with C1 symmetry

B1: human sodium-chloride cotransporter NCC (natural protein, UniProt P55017-1 1-1021, looked up)
chain: MAELPTTETPGDATLCSGRFTISTLLSSDEPSPPAAYDSSHPSHLTHSSTFCMRTFGYNTIDVVPTYEHYANSTQPGEPRKVRPTLADLHSFLKEGRHLHALAFDSRPSHEMTDGLVEGEAGTSSEKNPEEPVRFGWVKGVMIRCMLNIWGVILYLRLPWITAQAGIVLTWIIILLSVTVTSITGLSISAISTNGKVKSGGTYFLISRSLGPELGGSIGLIFAFANAVGVAMHTVGFAETVRDLLQEYGAPIVDPINDIRIIGVVSVTVLLAISLAGMEWESKAQVLFFLVIMVSFANYLVGTLIPPSEDKASKGFFSYRADIFVQNLVPDWRGPDGTFFGMFSIFFPSATGILAGANISGDLKDPAIAIPKGTLMAIFWTTISYLAISATIGSCVVRDASGVLNDTVTPGWGACEGLACSYGWNFTECTQQHSCHYGLINYYQTMSMVSGFAPLITAGIFGATLSSALACLVSAAKVFQCLCEDQLYPLIGFFGKGYGKNKEPVRGYLLAYAIAVAFIIIAELNTIAPIISNFFLCSYALINFSCFHASITNSPGWRPSFQYYNKWAALFGAIISVVIMFLLTWWAALIAIGVVLFLLLYVIYKKPEVNWGSSVQAGSYNLALSYSVGLNEVEDHIKNYRPQCLVLTGPPNFRPALVDFVGTFTRNLSLMICGHVLIGPHKQRMPELQLIANGHTKWLNKRKIKAFYSDVIAEDLRRGVQILMQAAGLGRMKPNILVVGFKKNWQSAHPATVEDYIGILHDAFDFNYGVCVMRMREGLNVSKMMQAHINPVFDPAEDGKEASARVDPKALVKEEQATTIFQSEQGKKTIDIYWLFDDGGLTLLIPYLLGRKRRWSKCKIRVFVGGQINRMDQERKAIISLLSKFRLGFHEVHILPDINQNPRAEHTKRFEDMIAPFRLNDGFKDEATVNEMRRDCPWKISDEEITKNRVKSLRQVRLNEIVLDYSRDAALIVITLPIGRKGKCPSSLYMAWLETLSQDLRPPVILIRGNQENVLTFYCQ
modifications: N-acetylglucosamine on Asn406 and Asn426; disulfide bonds Cys416-Cys421 and Cys430-Cys436
notes: human NCC (SLC12A3), cloned from HEK293 cDNA; an isoform that, compared with UniProt P55017-1, carries the naturally occurring A264G and lacks Gln95; residue numbers count on P55017-1; The atomic model holds residues 137-605 (TMD) and 616-1020 (CTD, docked as a rigid body from a SWISS-MODEL prediction); No cleavage of the tags is told; also called Na+-Cl- cotransporter; SLC12A3; not shown: FLAG, …
- stoichiometry N: 2
